Laboratory results taken from patent US20180339041A1 (Kyowa Kirin, published 2018).
One block for each binder: values may come before it.

What was measured:
[1] = molecular target: T1, hGas6-FH-L314A, Q315A, P316A (alanine substitution variant) (human, UniProt Q14393 1-678); test: ELISA, variant captured by anti-FLAG, biotinylated antibody
T1 construct: Limits of the deletion derived as for hGas6-FH; also called alanine variant
T1 chain: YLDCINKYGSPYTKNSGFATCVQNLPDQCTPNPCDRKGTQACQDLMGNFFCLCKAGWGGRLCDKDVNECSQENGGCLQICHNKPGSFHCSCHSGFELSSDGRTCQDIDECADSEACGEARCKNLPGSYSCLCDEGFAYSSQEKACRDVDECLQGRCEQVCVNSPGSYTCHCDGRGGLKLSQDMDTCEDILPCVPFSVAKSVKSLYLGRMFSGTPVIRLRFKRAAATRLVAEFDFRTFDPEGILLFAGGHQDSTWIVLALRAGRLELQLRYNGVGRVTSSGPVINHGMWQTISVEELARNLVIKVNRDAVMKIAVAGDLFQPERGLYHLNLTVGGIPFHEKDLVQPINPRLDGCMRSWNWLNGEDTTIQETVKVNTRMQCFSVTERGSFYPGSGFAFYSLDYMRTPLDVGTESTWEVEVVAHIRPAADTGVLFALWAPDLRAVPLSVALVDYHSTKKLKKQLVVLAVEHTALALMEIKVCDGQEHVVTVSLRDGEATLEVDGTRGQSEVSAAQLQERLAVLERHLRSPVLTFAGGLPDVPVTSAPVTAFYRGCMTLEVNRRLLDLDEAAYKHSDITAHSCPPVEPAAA
Method: First, 2 μg/mL anti-FLAG antibody [Monoclonal ANTI-FLAG M2 antibody produced in mouse (manufactured by Sigma-Aldrich Co. LLC) diluted with PBS (manufactured by Nacalai Tesque, Inc.)] was dispensed at 50 μL/well to a 96-well plate for ELISA (manufactured by Nalge Nunc International), and the plate was left standing overnight at 4° C. for adsorption. After removal of the immobilization solution, 1% BSA-PBS (manufactured by Nacalai Tesque, Inc.) was added thereto at 300 μL/well, and the plate was left standing at room temperature for 1 hour for blocking and washed five times with Tween 20-PBS (manufactured by Wako Pure Chemical Industries Ltd.).
Each antibody solution was dispensed thereto at 50 μL/well, and the plate was left standing at room temperature for 1 hour. This plate was washed five times with Tween 20-PBS. Then, Streptavidin HRP Conjugate (manufactured by R&D Systems, Inc.) diluted 200-fold with 1% BSA-PBS was dispensed thereto at 50 μL/well, and the plate was left standing at room temperature for 1 hour. This plate was washed five times with Tween 20-PBS, and TMB (manufactured by Sigma-Aldrich Co. LLC) was added thereto at 50 μL/well and reacted. […] The absorbance at a sample wavelength of 450 nm and a reference wavelength of 570 nm (450 nm-570 nm) was measured using a plate reader.

[2] = molecular target: T2, C-terminally FLAG-tagged human Gas6 recombinant protein (hGas6-F) (human, UniProt Q14393 31-678, gamma-carboxylated glutamic acid residues in the Gla domain (producer cells co-express rat VKOR and human GGCX); positions not given); test: SPR Biacore T100, captured antibody, Gas6 analyte, first test
T2 construct: also called human Gas6-F; human Gas6 protein
T2 sequence: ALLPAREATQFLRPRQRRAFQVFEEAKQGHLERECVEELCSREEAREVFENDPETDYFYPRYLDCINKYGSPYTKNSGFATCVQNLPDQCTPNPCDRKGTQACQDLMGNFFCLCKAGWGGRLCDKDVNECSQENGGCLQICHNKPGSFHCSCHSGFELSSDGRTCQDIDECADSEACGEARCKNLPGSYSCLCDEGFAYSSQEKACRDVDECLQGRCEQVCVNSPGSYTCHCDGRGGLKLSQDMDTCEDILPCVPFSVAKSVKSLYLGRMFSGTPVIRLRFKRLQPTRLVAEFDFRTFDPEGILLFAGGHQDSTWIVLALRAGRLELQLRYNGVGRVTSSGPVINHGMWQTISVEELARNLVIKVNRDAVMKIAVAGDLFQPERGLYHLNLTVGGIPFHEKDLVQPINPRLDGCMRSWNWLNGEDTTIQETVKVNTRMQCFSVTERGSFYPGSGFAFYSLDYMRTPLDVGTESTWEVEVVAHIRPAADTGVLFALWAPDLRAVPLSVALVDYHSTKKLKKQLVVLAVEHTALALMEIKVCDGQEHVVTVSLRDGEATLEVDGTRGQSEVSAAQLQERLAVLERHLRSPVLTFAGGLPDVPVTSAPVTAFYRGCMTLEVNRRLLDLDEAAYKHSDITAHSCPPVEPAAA
Method: The measurement instrument used was Biacore® T100 (manufactured by GE Healthcare Japan Corp.).
(§1) An anti-human IgG antibody was immobilized on a CM5 sensor chip (manufactured by GE Healthcare Japan Corp.) using Human Antibody Capture Kit (manufactured by GE Healthcare Japan Corp.) according to the attached manual. Each test antibody adjusted to 1 μg/mL was added for 10 seconds at a flow rate of 10 μL/min to flow cells. […] The measurement was performed by the […] method. The obtained sensorgram was analyzed using Bia Evaluation Software (manufactured by GE Healthcare Japan Corp.), and the kinetic constant of each antibody was calculated.

[3] = molecular target: T2, C-terminally FLAG-tagged human Gas6 …; test: as above; remark: listed apart in the source
Method: as §1

[4] = molecular target: T2, C-terminally FLAG-tagged human Gas6 …; test: ELISA, Gas6-F captured by anti-FLAG, biotinylated antibody
Method: After removal of the immobilization solution, 1% BSA-PBS (manufactured by Nacalai Tesque, Inc.) was added thereto at 300 μL/well, and the plate was left standing at room temperature for 1 hour for blocking and washed five times with Tween 20-PBS (manufactured by Wako Pure Chemical Industries Ltd.).
Each antibody solution was dispensed thereto at 50 μL/well, and the plate was left standing at room temperature for 1 hour. This plate was washed five times with Tween 20-PBS. Then, Streptavidin HRP Conjugate (manufactured by R&D Systems, Inc.) diluted 200-fold with 1% BSA-PBS was dispensed thereto at 50 μL/well, and the plate was left standing at room temperature for 1 hour. This plate was washed five times with Tween 20-PBS, and TMB (manufactured by Sigma-Aldrich Co. LLC) was added thereto at 50 μL/well and reacted. At an appropriate point in time, the reaction was terminated by the addition of 1 N hydrochloric acid (manufactured by Wako Pure Chemical Industries Ltd.) at 50 μL/well. The absorbance at a sample wavelength of 450 nm and a reference wavelength of 570 nm (450 nm-570 nm) was measured using a plate reader.

[5] = molecular target: T3, human protein S (derived from human serum; Enzyme Research Laboratories) (human, UniProt P07225 42-676); test: ELISA: human protein S coated directly on the plate (2 µg/mL); biotinylated test antibody; streptavidin-HRP/TMB (Example 6, method of Example 5(5)) [F]
T3 construct: Homologue of Gas6 used as specificity control
T3 sequence (looked up): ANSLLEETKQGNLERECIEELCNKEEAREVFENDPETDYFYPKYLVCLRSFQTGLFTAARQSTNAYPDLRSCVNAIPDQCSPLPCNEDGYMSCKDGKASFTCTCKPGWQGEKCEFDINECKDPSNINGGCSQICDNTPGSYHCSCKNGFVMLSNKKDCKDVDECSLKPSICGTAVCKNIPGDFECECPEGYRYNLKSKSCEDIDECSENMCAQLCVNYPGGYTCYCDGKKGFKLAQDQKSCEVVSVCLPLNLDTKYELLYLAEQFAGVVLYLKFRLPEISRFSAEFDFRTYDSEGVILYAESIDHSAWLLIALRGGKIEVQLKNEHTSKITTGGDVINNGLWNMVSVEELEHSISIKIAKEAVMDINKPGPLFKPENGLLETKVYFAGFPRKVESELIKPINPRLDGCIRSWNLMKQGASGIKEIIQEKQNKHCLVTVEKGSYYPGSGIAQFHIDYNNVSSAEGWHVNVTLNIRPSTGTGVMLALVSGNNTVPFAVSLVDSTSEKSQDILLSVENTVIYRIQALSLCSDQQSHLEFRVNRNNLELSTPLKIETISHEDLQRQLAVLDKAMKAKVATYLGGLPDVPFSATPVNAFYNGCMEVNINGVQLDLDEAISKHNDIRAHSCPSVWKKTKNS
Method: First, a 2 μg/mL solution of the antigen (prepared from each antigen with PBS (manufactured by Nacalai Tesque, Inc.)) was dispensed at 50 μL/well to a 96-well plate for ELISA (manufactured by Nalge Nunc International), and the plate was left standing overnight at 4° C. for adsorption. The plate was washed five times with Tween 20-PBS. Then, 1% BSA-PBS (manufactured by Nacalai Tesque, Inc.) was added thereto at 300 μL/well, and the plate was left standing at room temperature for 1 hour for blocking and washed five times with Tween 20-PBS (manufactured by Wako Pure Chemical Industries Ltd.). Next, the hybridoma culture supernatant was dispensed thereto as a test substance at 50 μL/well, and the plate was left standing at room temperature for 1 hour and then washed five times with Tween 20-PBS. Next, polyclonal goat anti-mouse immunoglobulins/HRP (Dako Denmark A/S, P0447) diluted 2000-fold with 1% BSA-PBS was dispensed thereto at 50 μL/well, and the plate was left standing at room temperature for 1 hour. The plate was washed five times with Tween 20-PBS, and TMB (manufactured by Sigma-Aldrich Co. LLC) was added thereto at 50 μL/well and reacted. At an appropriate point in time, the reaction was terminated by the addition of 1 N hydrochloric acid (manufactured by Wako Pure Chemical Industries Ltd.) at 50 μL/well. The absorbance at a sample wavelength of 450 nm and a reference wavelength of 570 nm (450 nm-570 nm) was measured using a plate reader (Spectra Max, manufactured by Molecular Devices, LLC).
The binding activity of the obtained antibodies against human protein S was measured in the same way as in Example 5(5). […] The secondary detection reagent used was Streptavidin HRP Conjugate (manufactured by R&D Systems, Inc.) diluted 200-fold with 1% BSA-PBS.

- binding result [1]: no binding
B1: anti-human Gas6 mouse-rat chimeric antibody KM5320-rKG1 (antibody, V domains shown)
VH: QIQLVQSGPELKKPGETVKISCKASGYTFTNYGMNWVKQAPGKGLKWMGWINTETGEPTYSDDFKGRFAFSLETSATTAYLQINNLRNEDMATYFCAREDGYYGTLDYWGQGTSVTVSS
VL: SIVMTQTPKFLLVSAGDRVTITCKASQSVSNDVAWYQQKPGQSPKVLIYYASNRYTGVPDRFTGSGYGTDFTFTISTVQAEDLAVYFCQQDYSSPWTFGGGTKLEIK
notes: 92 and 94 are not tied in words; also called KM5320-rKG1 antibody

- fold increase of KD against the KM5321 chimeric antibody [2]: ~3 fold
- fold increase of kd against the KM5321 chimeric antibody [2]: ~3 fold
- Kd [3]: < 3.57 nM
- koff [3]: 0.000468 s⁻¹
- kon [3]: > 131000 M⁻¹ s⁻¹
B2: hzKM5321 LV0HV0 antibody (antibody, V domains shown)
VH: QVHLVQSGSELKKPGASVKISCKASGYTFTNYGMNWVRQAPGQGLEWMGWINTNTGEPTYTEEFKGRFVFSLDTSVTTSYLQISTLKAEDTAVYFCARDEGWFVYWGQGTLVTVSS
VL: ETTLTQSPSSLSASVGDRVTITCITSTDIDDDMNWYQQKPGKAPKLLISEGNTLRPGVPSRFSGSGSGTDFTLTISSLQPEDFATYYCLQTDSVPLTFGQGTKVEIK
notes: Humanized; variant human IgG4 constant region (EU S228P, L235E, R409K), human kappa; also called B-02; LV0HV0

- antibody concentration at which binding activity was detected [4]: 0.04 µg/mL
- binding activity at 5 µg/mL against the largest activity of KM5320-mKG1 and KM5321-mKG1 [4]: < 0.5 fold
- binding result [5]: no binding (tested: 5 µg/mL)
B3: CNTO antibody (anti-Gas6 monoclonal antibody WG1 of U.S. Pat. No. 7,547,767, remade) (antibody, V domains shown)
VH: QVQLVESGGGVVQPGRSLRLSCAASGFTFSSYGMHWVRQAPGKGLEWVAVIWYDGSNKYYADSVKGRFTISRDNSKNTLYLQMNSLRAEDTAMYFCAREGFYYDILTAYSLEYFQHWGQGTLVTVSS
VL: EIVLTQSPDFQSVTPKEKVTITCRASQSIGSSLHWYQQKPDQSPKLLIKYASQSFSGVPSRFSGSGSGTDFTLTINSLEAEDAAAYYCHQSSSLPYTFGQGTKLEIK
notes: Expressed from vector pKANTEX93 in CHO; also called CNT0300

- binding result [1]: no binding
B4: anti-human Gas6 mouse-rat chimeric antibody KM5321-rKG1 (antibody, V domains shown)
VH: QIQLVQSGPELKKPGETVKISCRASGYTFTNYGMNWVKQAPGKGLKWMGWINTNTGEPTYTEEFKGRFAFSLETSATTAYLQINDLKNEDTATYFCARDEGWFVYWGQGTLITVSA
VL: ETTVTQSPASLSVATGEKVTIRCITSTDIDDDMNWYQQKPGEPPKLLISEGNTLRPGVPSRFSSSGYGTDFVFTIENTLSEDVADYYCLQTDSVPLTFGAGTKLELK
notes: 96 and 98 are not tied in words; also called KM5321-rKG1 antibody
